# Laboratory results reported in patent US20040265965A1 (ELAN PHARMACEUTICALS, published 2004).
# Non-standard residues stand in square brackets, D forms with d. No end group written: not given here. Sta = CC(C)C[C@H](N)[C@@H](O)CC(=O)O
# Experiments:
# [1] = biological target: T1, Δ2,3-452H,NINL soluble BACE (S174I, N223A, R42L43P44R45 changed to NINL, histidine tag), baculovirus/Sf9 (human, UniProt P56817 46-452); assay: affinity chromatography on the immobilised inhibitor peptide
# T1 construct: not shown: histidine tag
# [2] = biological target: T2, Δ2,3-452H soluble BACE (S174I, N223A, histidine tag), baculovirus/Sf9 (human, UniProt P56817 22-452); assay: as above
# T2 construct: not shown: histidine tag
# T2 sequence (P56817 22-452 S174I/N223A): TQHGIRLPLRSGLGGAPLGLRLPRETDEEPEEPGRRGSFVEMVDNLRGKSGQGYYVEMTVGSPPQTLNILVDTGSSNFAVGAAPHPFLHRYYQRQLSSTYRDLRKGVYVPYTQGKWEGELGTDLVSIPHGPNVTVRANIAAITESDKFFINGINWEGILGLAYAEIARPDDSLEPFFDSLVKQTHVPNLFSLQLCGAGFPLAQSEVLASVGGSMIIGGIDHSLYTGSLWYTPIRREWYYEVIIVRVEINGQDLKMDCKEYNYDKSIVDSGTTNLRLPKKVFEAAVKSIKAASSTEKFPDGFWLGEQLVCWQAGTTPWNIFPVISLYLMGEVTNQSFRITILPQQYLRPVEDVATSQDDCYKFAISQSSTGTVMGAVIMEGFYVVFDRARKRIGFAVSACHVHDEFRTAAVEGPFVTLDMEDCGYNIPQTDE
# T1 sequence (P56817 other isoform, or with tags, fused parts or gaps S174I N223A S174I N223A): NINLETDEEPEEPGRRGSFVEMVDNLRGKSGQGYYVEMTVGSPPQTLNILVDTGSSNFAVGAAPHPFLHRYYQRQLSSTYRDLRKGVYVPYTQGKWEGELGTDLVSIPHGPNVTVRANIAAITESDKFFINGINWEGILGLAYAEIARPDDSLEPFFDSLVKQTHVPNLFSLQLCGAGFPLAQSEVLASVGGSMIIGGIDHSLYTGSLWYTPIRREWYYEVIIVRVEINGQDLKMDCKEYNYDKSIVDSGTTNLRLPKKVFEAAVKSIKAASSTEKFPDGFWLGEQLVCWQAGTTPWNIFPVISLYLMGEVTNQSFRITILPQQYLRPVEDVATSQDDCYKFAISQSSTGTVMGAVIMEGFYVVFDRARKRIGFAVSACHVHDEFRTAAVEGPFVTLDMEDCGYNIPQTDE
binder,measurement,setting,value
"KTEEISEVN[Sta]VAEF (also called P10-P4′staV; P10-4′staD→V) [P10-P4′staD→V inhibitor peptide, KTEEISEVN[sta]VAEF]",binding result,[1],binds
same,binding result,[2],binds
